Results reported in PMC3680732.

Biological target: T1, HOT1 DBD (crystal) (human, UniProt Q6NT76 233-345)
T1 sequence: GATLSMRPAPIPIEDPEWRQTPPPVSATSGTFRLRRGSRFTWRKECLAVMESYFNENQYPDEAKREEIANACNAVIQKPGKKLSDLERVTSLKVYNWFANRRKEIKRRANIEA
Experiment: crystal structure

B1: T1/T2 telomeric crystal duplex (dsDNA)
DNA 1: CTGTTAGGGTTAGGGTTAG
DNA 2: TCTAACCCTAACCCTAACA
binding result: binds
